Measured values taken from the supplement of paper PMC9112550, “Optimization of the antimicrobial peptide Bac7 by deep mutational scanning” (BMC Biology, 2022).

What follows are sequences tested on Escherichia coli TOP10 (assay: shrunken log2 fold change of peptide-encoding DNA abundance (4.5 h post-induction vs induction); higher = less antimicrobial activity (less host growth inhibition)). Conditions: time post-induction: 4.5 h; library: site-saturation at positions 5, 18, 19, 20.
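Further: peptides expressed intracellularly from a pBAD plasmid library in pooled LB shake-flask culture, induced with 0.3% L-arabinose, DNA abundance read by NGS, three biological replicates, DESeq2 with apeglm shrinkage.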

Row | Sequence | shrunken log2 fold change
1 | RRIRIRPPRLPRPRPRPRKFPRP | -0.000367
2 | RRIRIRPPRLPRPRPRPRQIPRP | -0.212
3 | RRIRIRPPRLPRPRPRPRQNPRP | -0.459
4 | RRIRIRPPRLPRPRPRPRRLPRP | -0.0824
5 | RRIRIRPPRLPRPRPRPRRRPRP | 0.169
6 | RRIRIRPPRLPRPRPRPRTDPRP | -0.158
7 | RRIRIRPPRLPRPRPRPRTPPRP | 0.089
8 | RRIRIRPPRLPRPRPRPRVFPRP | 0.0961
9 | RRIRIRPPRLPRPRPRPRWYPRP | -0.452
10 | RRIRIRPPRLPRPRPRPSAWPRP | 0.0616
11 | RRIRIRPPRLPRPRPRPSCQPRP | -0.0446
12 | RRIRIRPPRLPRPRPRPSCWPRP | -0.322
13 | RRIRIRPPRLPRPRPRPSFLPRP | -1.11
14 | RRIRIRPPRLPRPRPRPSHEPRP | -0.159
15 | RRIRIRPPRLPRPRPRPSKIPRP | -0.441
16 | RRIRIRPPRLPRPRPRPSKNPRP | -0.76
17 | RRIRIRPPRLPRPRPRPSMPPRP | -0.339
18 | RRIRIRPPRLPRPRPRPSNAPRP | -0.0615
19 | RRIRIRPPRLPRPRPRPSNHPRP | -1.15
20 | RRIRIRPPRLPRPRPRPSNPPRP | -0.74
21 | RRIRIRPPRLPRPRPRPSPKPRP | -0.178
22 | RRIRIRPPRLPRPRPRPSPLPRP | -0.499
23 | RRIRIRPPRLPRPRPRPSPQPRP | -0.512
24 | RRIRIRPPRLPRPRPRPSRNPRP | -0.124
25 | RRIRIRPPRLPRPRPRPSSIPRP | -0.169

Row | Sequence | shrunken log2 fold change
26 | RRIRIRPPRLPRPRPRPSYVPRP | -1.22
27 | RRIRIRPPRLPRPRPRPTDAPRP | -0.0317
28 | RRIRIRPPRLPRPRPRPTDWPRP | 0.0724
29 | RRIRIRPPRLPRPRPRPTECPRP | 0.00877
30 | RRIRIRPPRLPRPRPRPTEDPRP | 0.267
31 | RRIRIRPPRLPRPRPRPTFWPRP | 0.407
32 | RRIRIRPPRLPRPRPRPTGFPRP | -0.0748
33 | RRIRIRPPRLPRPRPRPTHMPRP | 0.578
34 | RRIRIRPPRLPRPRPRPTIKPRP | -0.611
35 | RRIRIRPPRLPRPRPRPTKKPRP | 0.0727
36 | RRIRIRPPRLPRPRPRPTLHPRP | -0.377
37 | RRIRIRPPRLPRPRPRPTLYPRP | -0.348
38 | RRIRIRPPRLPRPRPRPTMMPRP | -0.0891
39 | RRIRIRPPRLPRPRPRPTNKPRP | -0.687
40 | RRIRIRPPRLPRPRPRPTQDPRP | -0.236
41 | RRIRIRPPRLPRPRPRPTQKPRP | 0.0769
42 | RRIRIRPPRLPRPRPRPTRMPRP | 0.0519
43 | RRIRIRPPRLPRPRPRPTTDPRP | -0.0551
44 | RRIRIRPPRLPRPRPRPTTPPRP | 0.552
45 | RRIRIRPPRLPRPRPRPTTVPRP | -0.319
46 | RRIRIRPPRLPRPRPRPTWVPRP | -0.022
47 | RRIRIRPPRLPRPRPRPTYPPRP | -0.592
48 | RRIRIRPPRLPRPRPRPVAVPRP | -0.104
49 | RRIRIRPPRLPRPRPRPVDLPRP | 0.0939
50 | RRIRIRPPRLPRPRPRPVFCPRP | -0.321

Row | Sequence | shrunken log2 fold change
51 | RRIRIRPPRLPRPRPRPVFGPRP | -0.0092
52 | RRIRIRPPRLPRPRPRPVFKPRP | -0.25
53 | RRIRIRPPRLPRPRPRPVGAPRP | 0.475
54 | RRIRIRPPRLPRPRPRPVHLPRP | -0.0973
55 | RRIRIRPPRLPRPRPRPVHTPRP | -0.4
56 | RRIRIRPPRLPRPRPRPVKHPRP | -0.107
57 | RRIRIRPPRLPRPRPRPVMWPRP | -0.0605
58 | RRIRIRPPRLPRPRPRPVNCPRP | -0.34
59 | RRIRIRPPRLPRPRPRPVPRPRP | 0.0562
60 | RRIRIRPPRLPRPRPRPVPVPRP | 0.0789
61 | RRIRIRPPRLPRPRPRPVQLPRP | -0.0585
62 | RRIRIRPPRLPRPRPRPVREPRP | 0.201
63 | RRIRIRPPRLPRPRPRPVRKPRP | -0.48
64 | RRIRIRPPRLPRPRPRPVRSPRP | 0.373
65 | RRIRIRPPRLPRPRPRPVSCPRP | -0.0157
66 | RRIRIRPPRLPRPRPRPVTYPRP | -0.275
67 | RRIRIRPPRLPRPRPRPVVNPRP | -0.356
68 | RRIRIRPPRLPRPRPRPVWQPRP | 0.536
69 | RRIRIRPPRLPRPRPRPVWVPRP | 0.107
70 | RRIRIRPPRLPRPRPRPVYLPRP | -0.0309
71 | RRIRIRPPRLPRPRPRPWCFPRP | -0.596
72 | RRIRIRPPRLPRPRPRPWDKPRP | -0.0749
73 | RRIRIRPPRLPRPRPRPWEPPRP | -0.146
74 | RRIRIRPPRLPRPRPRPWGWPRP | 0.0753
75 | RRIRIRPPRLPRPRPRPWLPPRP | -0.325
